This note sets out measurements from doi:10.1101/2022.05.10.491262.

The assay concerns the target T1, human alpha-2-macroglobulin, native state (nA2M) (human), P01023.
T1 chain: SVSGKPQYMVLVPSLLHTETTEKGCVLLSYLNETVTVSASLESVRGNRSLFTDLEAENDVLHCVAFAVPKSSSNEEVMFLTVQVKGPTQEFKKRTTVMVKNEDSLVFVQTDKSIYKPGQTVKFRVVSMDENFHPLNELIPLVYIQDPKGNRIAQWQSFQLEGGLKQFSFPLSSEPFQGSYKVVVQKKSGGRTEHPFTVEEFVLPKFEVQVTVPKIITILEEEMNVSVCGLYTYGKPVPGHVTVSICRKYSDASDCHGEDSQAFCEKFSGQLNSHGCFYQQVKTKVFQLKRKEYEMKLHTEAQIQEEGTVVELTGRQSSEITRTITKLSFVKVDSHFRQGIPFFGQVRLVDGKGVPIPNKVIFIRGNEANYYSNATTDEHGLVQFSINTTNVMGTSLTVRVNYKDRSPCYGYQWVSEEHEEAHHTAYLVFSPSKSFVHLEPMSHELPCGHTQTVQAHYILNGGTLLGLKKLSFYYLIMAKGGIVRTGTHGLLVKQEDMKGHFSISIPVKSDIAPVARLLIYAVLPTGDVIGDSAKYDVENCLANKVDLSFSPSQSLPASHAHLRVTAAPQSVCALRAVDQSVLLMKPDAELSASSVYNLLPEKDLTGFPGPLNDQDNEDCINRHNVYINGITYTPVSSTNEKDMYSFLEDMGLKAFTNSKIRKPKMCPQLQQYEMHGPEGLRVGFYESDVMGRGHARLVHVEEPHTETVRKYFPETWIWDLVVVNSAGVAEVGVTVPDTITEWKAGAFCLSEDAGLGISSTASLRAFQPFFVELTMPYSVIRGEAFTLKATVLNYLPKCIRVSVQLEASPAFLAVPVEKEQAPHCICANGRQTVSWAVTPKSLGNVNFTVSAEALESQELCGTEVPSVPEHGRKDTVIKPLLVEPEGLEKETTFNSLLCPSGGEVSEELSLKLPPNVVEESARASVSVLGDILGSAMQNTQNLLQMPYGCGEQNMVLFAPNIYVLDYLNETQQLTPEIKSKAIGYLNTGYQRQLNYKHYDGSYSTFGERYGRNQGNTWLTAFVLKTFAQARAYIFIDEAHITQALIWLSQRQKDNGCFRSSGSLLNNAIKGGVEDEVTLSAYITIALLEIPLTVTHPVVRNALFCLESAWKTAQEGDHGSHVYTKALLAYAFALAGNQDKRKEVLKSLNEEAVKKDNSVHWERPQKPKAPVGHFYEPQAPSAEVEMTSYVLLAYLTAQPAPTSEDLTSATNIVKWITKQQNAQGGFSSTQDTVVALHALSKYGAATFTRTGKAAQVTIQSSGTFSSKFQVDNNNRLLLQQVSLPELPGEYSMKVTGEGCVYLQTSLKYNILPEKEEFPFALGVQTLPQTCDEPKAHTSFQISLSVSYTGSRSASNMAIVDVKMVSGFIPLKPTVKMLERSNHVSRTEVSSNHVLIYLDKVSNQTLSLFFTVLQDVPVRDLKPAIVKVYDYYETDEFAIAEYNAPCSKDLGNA
The assay is described as follows: ITC.

B1: human trypsin, P35030 81-304 (enzyme)
chain: IVGGYTCEENSLPYQVSLNSGSHFCGGSLISEQWVVSAAHCYKTRIQVRLGEHNIKVLEGNEQFINAAKIIRHPKYNRDTLDNDIMLIKLSSPAVINARVSTISLPTTPPAAGTECLISGWGNTLSFGADYPDELKCLDAPVLTQAECKASYPGKITNSMFCVGFLEGGKDSCQRDSGGPVVCNGQLQGVVSWGHGCAWKNRPGVYTKVYNYVDWIKDTIAANS
modifications: not checked
The molecule B1 registered a stoichiometry N (trypsin per hA2M) of 1.2.
